# In paper doi:10.1101/2019.12.16.876623 (bioRxiv, 2019):
# T1: His-MBP-Cdc5 T238D (S. cerevisiae, UniProt P32562 1-705, T238D)
# T1 sequence (looked up): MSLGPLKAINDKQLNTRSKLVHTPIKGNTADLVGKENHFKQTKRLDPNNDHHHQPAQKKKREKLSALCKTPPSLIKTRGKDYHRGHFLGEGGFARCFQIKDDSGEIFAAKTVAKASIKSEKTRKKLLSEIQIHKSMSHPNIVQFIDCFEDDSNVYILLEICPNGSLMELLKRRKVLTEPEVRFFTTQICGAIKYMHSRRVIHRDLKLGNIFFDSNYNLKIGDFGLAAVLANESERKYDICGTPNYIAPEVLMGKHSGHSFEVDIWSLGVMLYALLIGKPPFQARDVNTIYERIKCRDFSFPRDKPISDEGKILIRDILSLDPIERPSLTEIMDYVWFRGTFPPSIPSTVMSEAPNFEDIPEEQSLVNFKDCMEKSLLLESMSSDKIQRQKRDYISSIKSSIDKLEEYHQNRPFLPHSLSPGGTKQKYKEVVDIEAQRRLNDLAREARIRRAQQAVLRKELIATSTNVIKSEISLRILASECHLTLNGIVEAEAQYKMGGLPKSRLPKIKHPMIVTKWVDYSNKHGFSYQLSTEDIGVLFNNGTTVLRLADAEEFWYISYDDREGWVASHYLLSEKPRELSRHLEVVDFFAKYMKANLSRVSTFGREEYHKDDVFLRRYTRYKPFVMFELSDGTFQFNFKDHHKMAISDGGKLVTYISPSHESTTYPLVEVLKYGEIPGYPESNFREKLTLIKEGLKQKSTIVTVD
# Target: T1, His-MBP-Cdc5 T238D
# Test: pull-down
row,binding result,Binder
1,binds,"Exo1-Flag (recombinant, untreated) (natural protein, yeast, UniProt P39875 1-702, looked up) MGIQGLLPQLKPIQNPVSLRRYEGEVLAIDGYAWLHRAACSCAYELAMGKPTDKYLQFFIKRFSLLKTFKVEPYLVFDGDAIPVKKSTESKRRDKRKENKAIAERLWACGEKKNAMDYFQKCVDITPEMAKCIICYCKLNGIRYIVAPFEADSQMVYLEQKNIVQGIISEDSDLLVFGCRRLITKLNDYGECLEICRDNFIKLPKKFPLGSLTNEEIITMVCLSGCDYTNGIPKVGLITAMKLVRRFNTIERIILSIQREGKLMIPDTYINEYEAAVLAFQFQRVFCPIRKKIVSLNEIPLYLKDTESKRKRLYACIGFVIHRETQKKQIVHFDDDIDHHLHLKIAQGDLNPYDFHQPLANREHKLQLASKSNIEFGKTNTTNSEAKVKPIESFFQKMTKLDHNPKVANNIHSLRQAEDKLTMAIKRRKLSNANVVQETLKDTRSKFFNKPSMTVVENFKEKGDSIQDFKEDTNSQSLEEPVSESQLSTQIPSSFITTNLEDDDNLSEEVSEVVSDIEEDRKNSEGKTIGNEIYNTDDDGDGDTSEDYSETAESRVPTSSTTSFPGSSQRSISGCTKVLQKFRYSSSFSGVNANRQPLFPRHVNQKSRGMVYVNQNRDDDCDDNDGKNQITQRPSLRKSLIGARSQRIVIDMKSVDERKSFNSSPILHEESKKRDIETTKSSQARPAVRSISLLSQFVYKGK"
2,binds,"Exo1-Flag (recombinant, treated with lambda phosphatase) (natural protein, yeast, UniProt P39875 1-702, looked up, dephosphorylated with lambda phosphatase) MGIQGLLPQLKPIQNPVSLRRYEGEVLAIDGYAWLHRAACSCAYELAMGKPTDKYLQFFIKRFSLLKTFKVEPYLVFDGDAIPVKKSTESKRRDKRKENKAIAERLWACGEKKNAMDYFQKCVDITPEMAKCIICYCKLNGIRYIVAPFEADSQMVYLEQKNIVQGIISEDSDLLVFGCRRLITKLNDYGECLEICRDNFIKLPKKFPLGSLTNEEIITMVCLSGCDYTNGIPKVGLITAMKLVRRFNTIERIILSIQREGKLMIPDTYINEYEAAVLAFQFQRVFCPIRKKIVSLNEIPLYLKDTESKRKRLYACIGFVIHRETQKKQIVHFDDDIDHHLHLKIAQGDLNPYDFHQPLANREHKLQLASKSNIEFGKTNTTNSEAKVKPIESFFQKMTKLDHNPKVANNIHSLRQAEDKLTMAIKRRKLSNANVVQETLKDTRSKFFNKPSMTVVENFKEKGDSIQDFKEDTNSQSLEEPVSESQLSTQIPSSFITTNLEDDDNLSEEVSEVVSDIEEDRKNSEGKTIGNEIYNTDDDGDGDTSEDYSETAESRVPTSSTTSFPGSSQRSISGCTKVLQKFRYSSSFSGVNANRQPLFPRHVNQKSRGMVYVNQNRDDDCDDNDGKNQITQRPSLRKSLIGARSQRIVIDMKSVDERKSFNSSPILHEESKKRDIETTKSSQARPAVRSISLLSQFVYKGK"
3,binds,"Exo1-Flag (recombinant, treated with CDK1-cyclin B) (natural protein, yeast, UniProt P39875 1-702, looked up, phosphorylated in vitro with CDK1-cyclin B; sites not stated) MGIQGLLPQLKPIQNPVSLRRYEGEVLAIDGYAWLHRAACSCAYELAMGKPTDKYLQFFIKRFSLLKTFKVEPYLVFDGDAIPVKKSTESKRRDKRKENKAIAERLWACGEKKNAMDYFQKCVDITPEMAKCIICYCKLNGIRYIVAPFEADSQMVYLEQKNIVQGIISEDSDLLVFGCRRLITKLNDYGECLEICRDNFIKLPKKFPLGSLTNEEIITMVCLSGCDYTNGIPKVGLITAMKLVRRFNTIERIILSIQREGKLMIPDTYINEYEAAVLAFQFQRVFCPIRKKIVSLNEIPLYLKDTESKRKRLYACIGFVIHRETQKKQIVHFDDDIDHHLHLKIAQGDLNPYDFHQPLANREHKLQLASKSNIEFGKTNTTNSEAKVKPIESFFQKMTKLDHNPKVANNIHSLRQAEDKLTMAIKRRKLSNANVVQETLKDTRSKFFNKPSMTVVENFKEKGDSIQDFKEDTNSQSLEEPVSESQLSTQIPSSFITTNLEDDDNLSEEVSEVVSDIEEDRKNSEGKTIGNEIYNTDDDGDGDTSEDYSETAESRVPTSSTTSFPGSSQRSISGCTKVLQKFRYSSSFSGVNANRQPLFPRHVNQKSRGMVYVNQNRDDDCDDNDGKNQITQRPSLRKSLIGARSQRIVIDMKSVDERKSFNSSPILHEESKKRDIETTKSSQARPAVRSISLLSQFVYKGK"
